The text below walks through data of PMC8294390 (2021).

The assay concerns the target T1, TNFR1 (Homo sapiens, UniProt P19438).
T1 chain: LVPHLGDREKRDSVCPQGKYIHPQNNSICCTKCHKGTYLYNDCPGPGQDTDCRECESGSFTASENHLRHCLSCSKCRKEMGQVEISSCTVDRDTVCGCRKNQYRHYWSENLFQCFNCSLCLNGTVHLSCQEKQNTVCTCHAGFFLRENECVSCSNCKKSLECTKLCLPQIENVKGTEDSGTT
As to the kind of experiment: SPR.

B1: Atrosimab (antibody)
chain 1: HVQLVQSGAEVKKPGSSVKVSCKASGYTFTDFYINWVRQAPGQGLEWIGEIVPSQGEAKYNDKFKARVTITADKSTSTAYMELSSLRSEDTAVYYCARWDFLDYWGQGTTVTVSSGTGGGSGPSVFLFPPKPKDTLMISRTPEVTCVVVDVSHEDPEVKFNWYVDGVEVHNAKTKPREEQYNSTYRVVSVLTVLHQDWLNGKEYKCKVSNKGLPSSIEKTISKAKGQPREPSVFIFPPSDEQLKSGTASVVCLVNNFYPRDIAVEWEVDNALQSGNSQESVTEQDSKDSTYSLSSTLTLSKADYEKHKVYSCSVMHEALHNHYTQKSFNRGEC
chain 2: DVQMTQSPSSLSASVGDRVTITCRSSQSLLHSNGNTYLHWYQQKPGKAPKLLIYTVSNRFSGVPSRFSGSGSGTDFTLTISSLQPEDFATYYCSQSTHVPYTFGGGTKVEIKGTGGGSGPSVFLFPPKPKDTLMISRTPEVTCVVVDVSHEDPEVKFNWYVDGVEVHNAKTKPREEQYNSTYRVVSVLTVLHQDWLNGKEYKCKVSNKGLPSSIEKTISKAKGQPREPSVFPLAPSSKSTSGGTAALGCLVKDYFPSDIAVEWESGALTSGVHTFPAVLQSSGLYSLSSVVTVPSSSLGTQTYSCSVMHEALHNHYTQKSVEPKSC
What is called Kd is the equilibrium constant for the complex coming apart. B1: the Kd is 5.01 nM.
